Consider 27 molecules from patent US20210380679A1 (INHIBRX BIOSCIENCES, published 2021).

For test [1], the target named is T1, human DLL3 (Delta-like ligand 3) (human, UniProt Q9NYJ7 27-618).
T1 construct: endogenous on SHP-77 cells; also called cell-surface DLL3
T1 sequence: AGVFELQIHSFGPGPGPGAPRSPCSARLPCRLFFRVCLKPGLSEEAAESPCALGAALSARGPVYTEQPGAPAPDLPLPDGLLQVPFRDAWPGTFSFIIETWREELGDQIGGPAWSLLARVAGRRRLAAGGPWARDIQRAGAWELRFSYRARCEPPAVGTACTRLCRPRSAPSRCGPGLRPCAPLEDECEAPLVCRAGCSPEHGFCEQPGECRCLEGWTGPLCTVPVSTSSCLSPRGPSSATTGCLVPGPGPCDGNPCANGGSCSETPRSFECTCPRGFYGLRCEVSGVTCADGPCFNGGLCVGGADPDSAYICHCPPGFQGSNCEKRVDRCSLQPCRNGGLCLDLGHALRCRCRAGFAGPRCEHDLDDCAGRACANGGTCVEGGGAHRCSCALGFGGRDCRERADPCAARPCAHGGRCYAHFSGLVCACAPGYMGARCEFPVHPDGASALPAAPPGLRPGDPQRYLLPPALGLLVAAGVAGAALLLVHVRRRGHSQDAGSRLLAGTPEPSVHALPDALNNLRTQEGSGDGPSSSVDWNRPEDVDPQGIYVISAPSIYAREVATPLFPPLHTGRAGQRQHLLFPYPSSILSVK
Description: flow cytometry, sdAb-Fc titrated on SHP-77 cells (DLL3 positive), APC anti-human Fc secondary. As for the experimental part:
FIGS. 2A-L set forth a series of graphs depicting the ability of sdAb and humanized variants thereof targeting DLL3 to bind cell surface DLL3.
Specificity and relative affinity were assessed for purified sdAb-Fcs on DLL3-expressing cells. […] A titration series of the fusion protein was incubated with the DLL3-expressing cell lines (approximately 2.5×10⁴ to 5×10⁴ cells/well) for 30 minutes at 4 degrees Celsius in FACS Buffer (PBS 1% BSA, 0.1% NaN₃ pH 7.4) in 96-well plates. Following three wash steps in FACS buffer, an APC-conjugated anti-human Fcγ specific secondary antibody (Jackson ImmunoResearch) was added and incubated for 30 minutes at 4 degrees Celsius. Following three additional wash steps in FACS buffer bound antibody was detected via flow cytometry (IQue Intellicyte).
Background: Flow cytometry measures light scatter and fluorescence of single cells or particles in a stream.

In test [2] the target is T1, human DLL3 (Delta-like ligand 3). Description: flow cytometry, SHP-77 cells.

As a reminder, the EC50 (read off the curve) is the concentration giving half of the maximal effect. High values mean a need for much substance, low ones an effect from little substance.

B1: L6C5 (Fc fusion)
VHH: QVQLQESGGGLVQTGGSLTLSCGASEITFSDKTVGWYRQAPGKQRVLVAVISNVDSTNYAHSVKGRFTISRDNAKNTVYLQMNSLKPEDTAVYYCHARDFENEYWGRGTQVTVKP
notes: tested as VHH-human Fc; Fc not specified
For the molecule B1, in test [1], the binding result is given as “binds”.

B2: hz10D9v8 (Fc fusion)
VHH: EVQLVESGGGEVQPGGSLRLSCAASGFTFSINAMGWYRQAPGKQRELVAGFTGDTNTIYAESVKGRFTISRDNAKNTVYLQMSSLRAEDTAVYYCAADVQLFSRDYEFYWGQGTLVTVKP
notes: as for B1
As to B2, the binding result in test [2] is “binds”.

B3: hz10D9v13 (Fc fusion)
VHH: EVQLVESGGGEVQPGGSLRLSCAASGFIFSINAMGWYRQAPGKQRELVAGFTGDTNTIYAESVKGRFTISRDNAKNTVYLQMSSLRAEDTAVYYCAADVQLFSRDYEFYWGQGTLVTVKP
notes: as for B1
Regarding B3, the binding result in test [2] is listed as “binds”.

B4: hz10D9v12 (Fc fusion)
VHH: EVQLVESGGGEVQPGGSLRLSCAASGSIFSIYAMGWYRQAPGKQRELVAGFTGDTNTIYAESVKGRFTISRDNAKNTVYLQMSSLRAEDTAVYYCAADVQLFSRDYEFYWGQGTLVTVKP
notes: as for B1
On to B4, for which the binding result in test [2] is given as “binds”.

B5: hz10D9v11 (Fc fusion)
VHH: EVQLVESGGGEVQPGGSLRLSCAASGFIFSSYAMGWYRQAPGKQRELVAGFTGDTNTIYAESVKGRFTISRDNAKNTVYLQMSSLRAEDTAVYYCAADVQLFSRDYEFYWGQGTLVTVKP
notes: as for B1
As for B5, the binding result in test [2] is “binds”.

B6: hz10D9v10 (Fc fusion)
VHH: EVQLVESGGGEVQPGGSLRLSCAASGSIFSSNAMGWYRQAPGKQRELVAGFTGDTNTIYAESVKGRFTISRDNAKNTVYLQMSSLRAEDTAVYYCAADVQLFSRDYEFYWGQGTLVTVKP
notes: as for B1
With B6, the binding result in test [2] was “binds”.

B7: hz10D9v9 (Fc fusion)
VHH: EVQLVESGGGEVQPGGSLRLSCAASGFTFSSYAMGWYRQAPGKQRELVAGFTGDTNTIYAESVKGRFTISRDNAKNTVYLQMSSLRAEDTAVYYCAADVQLFSRDYEFYWGQGTLVTVKP
notes: as for B1
Regarding B7, in test [2], the binding result is given as “binds”.

B8: hz5A8v2 (Fc fusion)
VHH: EVQLVESGGGEVQPGGSLRLSCAASGSIFSINAMGWYRQAPGKQRELVAVVSSDGRTTVAPSVKGRFTISRDNAKNTVYLQMSSLRAEDTAVYYCGVREWYSDSDWRDYEGQGTLVTVKP
notes: as for B1
Regarding B8, in test [1], the binding result is reported as “binds”.

B9: hz5A8v6 (Fc fusion)
VHH: EVQLVESGGGEVQPGGSLRLSCAASGSIFSINAMGWYRQAPGKQRELVAVVSSEGRTTVAPSVKGRFTISRDNAKNTVYLQMSSLRAEDTAVYYCGVREWYSDSDWRDYEGQGTLVTVKP
notes: as for B1
For the molecule B9, in test [1], the binding result is “binds”.

B10: hz5A8v3 (Fc fusion)
VHH: EVQLVESGGGEVQPGGSLRLSCAASGSIFSINAMGWYRQVLGKQRELVAVVSSDGRTTVAPSVKGRFTISRDNAKNTVYLQMSSLRAEDTAVYYCGVREWYSDSDWRDYEGQGTLVTVKP
notes: as for B1
For the molecule B10, the binding result in test [1] is listed as “binds”.

B11: hz5A8v1 (Fc fusion)
VHH: EVQLVESGGGEVQPGGSLRLSCAASGSIFSINAMGWYRQAPGKQRELVAVVSSDGRTTVAESVKGRFTISRDNAKNTVYLQMSSLRAEDTAVYYCGVREWYSDSDWRDYEGQGTLVTVKP
notes: as for B1
Turning to B11, in test [1], the “EC50 (read off the curve)” value was about 2 nM.

B12: hz5A8v7 (Fc fusion)
VHH: EVQLVESGGGEVQPGGSLRLSCAASGSIFSINAMGWYRQAPGKQRELVAVVSSDARTTVAPSVKGRFTISRDNAKNTVYLQMSSLRAEDTAVYYCGVREWYSDSDWRDYEGQGTLVTVKP
notes: as for B1
Turning to B12, in test [1], the binding result is “binds”.

B13: hz5A8v8 (Fc fusion)
VHH: EVQLVESGGGEVQPGGSLRLSCAASGSIFSINAMGWYRQAPGKQRELVAVVSSDGRTTVAPSVKGRFTISRDNAKNTVYLQMSSLRAEDTAVYYCGVREWYSDADWRDYEGQGTLVTVKP
notes: as for B1
Consider B13, for which the binding result in test [1] is reported as “binds”.

B14: hz5A8v4 (Fc fusion)
VHH: EVQLVESGGGEVQPGGSLRLSCAASGSIFSINAMGWYRQAPGKQRELVAVVSSDGRTTVAPSVKGRFTISRDNAKNTVSLQMSSLRAEDTAVYYCGVREWYSDSDWRDYEGQGTLVTVKP
notes: as for B1
For the molecule B14, the binding result in test [1] was “binds”.

B15: hz5A8v9 (Fc fusion)
VHH: EVQLVESGGGEVQPGGSLRLSCAASGSIFSINAMGWYRQAPGKQRELVAVVSSDGRTTVAPSVKGRFTISRDNAKNTVYLQMSSLRAEDTAVYYCGVREWYSESDWRDYEGQGTLVTVKP
notes: as for B1
For B15, the binding result in test [1] is reported as “binds”.

B16: hz10E5v1 (Fc fusion)
VHH: EVQLVESGGGEVQPGGSLRLSCAASGFTLDDYTIGWFRQAPGKEREGVSCISSSGGSTYYAESVKGRFTISRDNAKNTLYLQMSSLRAEDTAVYYCATYCPVVVGPELGYDYWGQGTLVTVKP
notes: as for B1
As for B16, the “EC50 (read off the curve)” value in test [1] is about 5 nM.

B17: hz10E5v5 (Fc fusion)
VHH: EVQLVESGGGEVQPGGSLRLSCAASGFTLDDYTIGWFRQFPGKEREGVSCISSSGGSTYYAESVKGRFTISRDNAKNTLYLQMSSLRAEDTAVYYCATYCPVVVGPELGYDYWGQGTLVTVKP
notes: as for B1
As for B17, in test [1], the “EC50 (read off the curve)” value is about 7 nM.

B18: hz10E5v3 (Fc fusion)
VHH: EVQLVESGGGEVQPGGSLRLSCAASGFTLDDYTIGWFRQAPGKEREGVSCISSSGGSTYYAESVKGRFTISRDNAKNTLYLQMNDLRAEDTAVYYCATYCPVVVGPELGYDYWGQGTLVTVKP
notes: as for B1
Consider B18, for which the “EC50 (read off the curve)” value in test [1] is about 7 nM.

B19: L10E5 (Fc fusion)
VHH: EVQLVQSGGGLVQPGGSLRLSCAASGFTLDDYTIGWFRQFPGKEREGVSCISSSGGSTYYADSVKGRFTISRDNAKNTVWLQMNDLKSEDTAIYYCATYCPVVVGPELGYDYWGQGTQVTVKP
notes: as for B1
Consider B19, for which the “EC50 (read off the curve)” value in test [1] was about 3 nM.

B20: hz10E5v2 (Fc fusion)
VHH: EVQLVESGGGEVQPGGSLRLSCAASGFTLDDYTIGWFRQAPGKEREGVSCISSSGGSTYYAESVKGRFTISRDNAKNTVWLQMSSLRAEDTAVYYCATYCPVVVGPELGYDYWGQGTLVTVKP
notes: as for B1
As for B20, in test [1], the “EC50 (read off the curve)” value was about 7 nM.

B21: hz10E5v4 (Fc fusion)
VHH: EVQLVESGGGEVQPGGSLRLSCAASGFTLDDYTIGWFRQAPGKEREGVSCISSSGGSTYYAESVKGRFTISRDNAKNTLYLQMSSLKSEDTAIYYCATYCPVVVGPELGYDYWGQGTLVTVKP
notes: as for B1
As for B21, the “EC50 (read off the curve)” value in test [1] was about 10 nM.

B22: hz6C5v6 (Fc fusion)
VHH: EVQLVESGGGEVQPGGSLRLSCAASEITFSDKTVGWYRQAPGKQRVLVAVISNVDATNYAESVKGRFTISRDNAKNTVYLQMSSLRAEDTAVYYCHARDFENEYWGQGTLVTVKP
notes: as for B1
Take B22: the binding result in test [2] is recorded as “binds”.

B23: hz8E7v13 (Fc fusion)
VHH: EVQLVESGGGEVQPGGSLRLSCGPSEIITSDKSMGWWRQAPGKQRNLVAGISNVGSTNYAQSVKGRFTISRDNAKNTVYLQMSSLRAEDTAVYYCYARDFENEYWGQGTLVTVKP
notes: as for B1
As for B23, the binding result in test [2] is on record as “binds”.

B24: hz8E7v15 (Fc fusion)
VHH: EVQLVESGGGEVQPGGSLRLSCGPSEIITSDKSMGWVRQAPGKQRNLVAGISNVGSTNYAQSVKGRFTISRDNAKNTLYLQMSSLRAEDTAVYYCYARDFENEYWGQGTLVTVKP
notes: as for B1
For the molecule B24, the binding result in test [2] is “binds”.

B25: hz8E7v12 (Fc fusion)
VHH: EVQLVESGGGEVQPGGSLRLSCGPSEIITSDKSVGWWRQAPGKGRELVAGISNVGSTNYAQSVKGRFTISRDNAKNTLYLQMSSLRAEDTAVYYCYARDFENEYWGQGTLVTVKP
notes: as for B1
Turning to B25, the binding result in test [2] is reported as “binds”.

B26: hz8E7v4 (Fc fusion)
VHH: EVQLVESGGGEVQPGGSLRLSCAASEIITSDKSVGWWRQAPGKQRNLVAGISNVGSTNYAQSVKGRFTISRDNAKNTLFLQMSSLRAEDTAVYYCYARDFENEYWGQGTLVTVKP
notes: as for B1
Take B26: the binding result in test [1] was “binds”.

B27: hz8E7v14 (Fc fusion)
VHH: EVQLVESGGGEVQPGGSLRLSCGPSEIITSDKSVGWVRQAPGKQRNLVAGISNVGSTNYAQSVKGRFTISRDNAKNTVYLQMSSLRAEDTAVYYCYARDFENEYWGQGTLVTVKP
notes: as for B1
Turning to B27, the binding result in test [2] was “binds”.
